Molecular target: T1, CD47 on cells (HCC827 tumor cells; red blood cells from healthy people) (human, UniProt Q08722 19-323)
T1 construct: whole, on cells; Endogenous CD47 on human cells
Assay: flow cytometry on mixed HCC827 cells and red blood cells
Method: HCC827 tumor cells express PD-L1 and CD47, but red blood cells (RBCs) express only CD47. HCC827 cells and RBCs were mixed together, and flow cytometry (FCM) was used to detect whether the heterodimer was selective for the binding to the two cells in the mixed cells.
The specific implementation process of this method is as follows. […] Flow tubes were incubated on ice for 30 minutes. The cells were washed twice with PBS containing 2% FBS. Then the pellets were resuspended in 200 μL of cold PBS containing 2% FBS and FITC-labeled anti-human IgG antibody diluted 1:1000 (Beijing Zhongshan Golden Bridge, Catalog number ZF0306), incubated on ice for 30 minutes in the dark. The cells were washed twice with PBS containing 2% FBS, then resuspended in 500 μL of cold PBS. The cell suspension obtained was detected and analyzed on a flow cytometer (BD, FACS Calibur), and the respective fluorescence intensities of the two cells in the mixed cells were read.

T1 sequence (Q08722 19-323): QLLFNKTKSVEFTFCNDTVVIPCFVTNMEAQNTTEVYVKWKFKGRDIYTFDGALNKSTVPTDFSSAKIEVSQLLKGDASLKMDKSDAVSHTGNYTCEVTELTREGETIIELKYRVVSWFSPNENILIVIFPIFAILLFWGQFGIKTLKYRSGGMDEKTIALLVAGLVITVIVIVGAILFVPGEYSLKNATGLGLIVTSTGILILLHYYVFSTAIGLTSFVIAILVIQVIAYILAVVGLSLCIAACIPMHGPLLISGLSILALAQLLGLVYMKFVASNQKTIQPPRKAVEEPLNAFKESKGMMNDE

binding result: binds
B1: CD47 monoclonal antibody (heavy and light chain variable region sequences of the humanized sequences z11 of the antibody CD47-18-5 and the constant region … (antibody, V domains shown)
VH: QVQLVQSGAEVKKPGSSVKVSCKASGFNIEDIYMHWVRQAPGQGLEWMGRIDPANDNTKYGPKLQGRVTITADTSTNTAYMELSSLRSEDTAVYYCVRRIPTDIMDYWGQGTTVTVSS
VL: DIQMTQSPSSLSASVGDRVTITCKASQNVRTSIAWYQQKPGKAPKTLIYLASNRHTGVPSRFSGSGSGTEFTLTISNLQPEDFATYYCLQHWNYPFTFGQGTKLEIK
notes: also called anti-CD47 monoclonal antibody

From patent US20240052037A1 (BEIJING HANMI PHARMACEUTICAL, published 2024)
